{"source": "patent US20160040155A1", "about": "“ACTIVATING AN ALTERNATIVE PATHWAY FOR HOMOLOGY-DIRECTED REPAIR TO STIMULATE TARGETED GENE CORRECTION AND GENOME ENGINEERING” (UNIVERSITY OF WASHINGTON THROUGH ITS CENTER FOR …, priority 2013, published 2016)", "molecules": {"B1": {"name": "RAD51K133R: dominant negative RAD51 mutant which does not hydrolyze ATP, transiently expressed from pCMV-RAD51K133R-T2A-IFP-1.4 (protein, UniProt Q06609 2-339, looked up, variant K133R)", "DNA repair protein RAD51 …": "AMQMQLEANADTSVEEESFGPQPISRLEQCGINANDVKKLEEAGFHTVEAVAYAPKKELINIKGISEAKADKILAEAAKLVPMGFTTATEFHQRRSEIIQITTGSKELDKLLQGGIETGSITEMFGEFRTGRTQICHTLAVTCQLPIDRGGGEGKAMYIDTEGTFRPERLLAVAERYGLSGSDVLDNVAYARAFNTDHQTQLLYQASAMMVESRYALLIVDSATALYRTDYSGRGELSARQMHLARFLRMLLRLADEFGVAVVITNQVVAQVDGAAMFAADPKKPIGGNIIAHASTTRLYLRKGRGETRICKIYDSPCLPEAEAMFAINADGVGDAKD", "modifications": "T2A-IFP1.4 coexpression"}}, "format_in_all_cases": "cell-based, human", "key": {"Flp-In T-REx-293 cells": {"tested_on": "Flp-In T-REx-293 cells", "assay": "Tetracycline-inducible P-Tet TL reporter HDR and mutEJ assay with or without doxycycline", "protocol": "To ask if active transcription was required for the transcribed strand bias in HDR at nicks, derivatives of the TLTP and TLNT reporters were created in which a tetracycline-inducible (P-Tet) was substituted for the constitutive SFFV promoter upstream of GFP. TheseP-Tet TLTP and P-Tet TLNT reporters were stably integrated at the unique FRT site in Flp-In™ T-REx™-293 cells. Cells were cultured with (ON) or without (OFF) 1 μg/ml doxycycline, transfected with an I-AniI expression construct and the pCS14GFP plasmid dsDNA donor, and after 8-9 days of culture, doxycycline was added to the OFF cells to permit detection of HDR (GFP+) and mutEJ (mCherry+) events that had occurred in the absence of transcription. Active transcription increased the frequency of HDR at a transcribed-strand nick 2.5-fold, but reduced the frequency of HDR at a non-transcribed strand nick 4-fold (FIG. 9C). These opposing effects together accounted for the 8-fold greater frequency of HDR at a transcribed strand nick in a transcribed gene (FIG. 9B). […] Without wishing to be bound by theory, the transcription-associated strand bias of HDR at nicks may reflect unwinding ahead of the transcription apparatus that exposes the recombinogenic 3′ end of a transcribed strand nick that stimulates HDR, while occlusion of the 3′ end and exposure of the less recombinogenic 5′ end of a non-transcribed strand nick may hinder HDR (FIG. 9D). Similarly, the 2-fold reduction in mutEJ observed at DSBs, but not at nicks (FIG. 17B), may be caused by occlusion of the DSB by factors associated with the transcription apparatus.\n(§1) Cell culture and transfection. […]\nFlow cytometry. Cells were fixed in 2% formaldehyde and analyzed on an LSR II™ flow cytometer (Becton Dickinson, Franklin Lakes, N.J.). […]"}, "293T-TL7TP cells": {"tested_on": "293T-TL7TP cells", "assay": "Traffic Light (TL) reporter HDR (GFP+) flow assay, I-AniI nickase or cleavase, 293T-TL7TP clonal line", "conditions": "I-AniI nick, 99 nt ssDNA donors", "from_the_text": "Damage to the transcribed DNA strand is preferentially detected and repaired in transcription-coupled nucleotide excision repair^7, and transcribedstrand nicks can arrest transcriptional elongation in human cell extracts^8. […] Chromosomal repair targets were derived from the TL reporter^9. TLTP and […] reporters carry an I-AniI site oriented for nicking the transcribed or non-transcribed strand, respectively (FIGS. 1A and 5A-5E). HDR that replaces the I-AniI site and nonsense codons yields GFP+ cells (FIGS. 1B and 5A-5E). […] GFP+ cells among I-AniI-expressing (BFP+) cells were quantified 3 days later.\n(§2) Flow cytometry data were analyzed using FlowJo™ (Tree Star, Ashland, Oreg.) flow cytometry analysis software and frequencies were transferred to Microsoft Excel™ in which statistical significance was determined by two-tailed t-test. In all experiments I-AniI was co-expressed with mTagBFP (BFP) and GFP+ and mCherry+ frequencies among BFP+ cells are shown.\nDamage to the transcribed strand is preferentially detected and repaired in transcription-coupled nucleotide excision repair (16), and transcribed strand nicks can arrest transcriptional elongation in human cell extracts (17). […]"}, "HT1080-TL4TP clonal line": {"tested_on": "HT1080-TL4TP clonal line", "assay": "TL reporter HDR (GFP+) flow assay, I-AniI nickase or cleavase, HT1080-TL4TP clonal line", "conditions": "I-AniI nick, ssDNA donors", "protocol": "as §2\nssDNA molecules can serve as donors for HDR at DSBs (22-24). It was asked if they can also serve as donors for HDR at nicks using 99 nt ssDNA oligonucleotides in which a central 17 nt heterologous region corrects the mutations in the defective target gene (FIG. 10A). […] No donor strand bias was evident at DSBs.\nFlow cytometry, HDR and mutEJ frequencies. Cells were processed for flow cytometry as described previously (13). In experiments with I-AniI, which was co-expressed with mTagBFP (BFP), data are presented as GFP+ and mCherry+ frequencies among BFP+ cells, except in cases where flow was carried out more than 8 days post-transfection, by which time the BFP signal was largely extinguished.\nas §1\n(§3) Flow cytometry. Cells were fixed in 2% formaldehyde and analyzed on an LSR II™ flow cytometer (Becton Dickinson, Franklin Lakes, N.J.). […] GFP, mCherry, and mTagBFP fluorescence were detected with 488 nm, 561 nm 406 nm and 641 nm lasers, respectively. […]"}, "293T-TL7TP line": {"tested_on": "293T-TL7TP line", "assay": "TL reporter mutagenic end joining (mCherry+) flow assay, I-AniI, 293T-TL7TP line", "conditions": "mCherry+ cells, nicks or DSBs", "from_the_text": "Damage associated with gene targeting must be minimized for these applications. While the sequence-specificity of I-AniI limits its application to genome engineering, it is useful as a model in this context, as it cuts DNA to generate 5′-phosphate and 3′-hydroxyl ends like the FokI cleavage domain^13 of zinc finger or TALE nucleases suited for genome engineering applications. The TL reporter was used to quantify mutagenic end joining (EJ) accompanied by +2 frameshift that allows the mCherry gene to be translated (FIG. 1B). In the 293T-TL7TP line, the frequency of nick-initiated mutagenic EJ was nearly two orders of magnitude lower than that of DSB-initiated mutagenic EJ, regardless of donor (FIG. 3E). RAD51K133R expression increased the frequency of mutagenic EJ, but the frequency of nick-initiated mutagenic EJ remained lower than that of DSB-initiated mutagenic EJ (FIG. 3E). […]\nFlow cytometry data were analyzed using FlowJo™ (Tree Star, Ashland, Oreg.) flow cytometry analysis software and frequencies were transferred to Microsoft Excel™ in which statistical significance was determined by two-tailed t-test. […]\nas §3"}, "[1]": {"tested_on": "293T-TLTP and 293T-TLNT cell populations", "assay": "TL reporter HDR (GFP+) assay in 293T-TLTP and 293T-TLNT cell populations, I-AniI", "conditions": "I-AniI nickase", "from_the_text": "Populations of 293T cells bearing either the TLTP or TLNT reporter at heterogeneous integration sites were transiently transfected with a construct co-expressing I-AniI and the blue fluorescent protein mTagBFP (BFP), and with the dsDNA plasmid donor pCS14GFP. This donor is homologous with the TLTP and TLNT reporters over a region extending 2.47 kb upstream and 0.56 kb downstream of the I-AniI site (FIG. 15A-15C). GFP+ cells among I-AniI-expressing (BFP+) cells were quantified at 3 days post-transfection. […] Nicks initiated HDR with nearly 8-fold greater frequency in the TLTP than in the TLNT population.\nTo learn what determines ssDNA donor strand bias, HDR by ssDNA donors complementary to the intact (cI) or nicked (cN) strand at transcribed and non-transcribed strand nicks in the TLTP and TLNT populations was compared. The TLTP and TLNT populations carry reporters delivered by lentiviruses and integrated at heterogeneous chromosomal positions, to minimize possible effects of replication direction on this assay.\nTo determine whether there is a predominant directionality to unwinding or resection, a comparison was made of HDR at nicks by ssDNA donors identical in length (75 nt) and centered on the nick or extending either 3′ or 5′ of the nick. […]"}, "[2]": {"conditions": "ON vs OFF, 1 μg/ml doxycycline, pCS14GFP dsDNA donor"}}, "note": "“Also recorded” adds a separate entry of the source."}
{"molecule": "C[C@H]1c2cccc(O)c2C(=O)C2=C(O)[C@]3(O)C(=O)C(C(N)=O)=C(O)[C@@H](N(C)C)[C@@H]3[C@@H](O)[C@@H]21", "note": "[doxycycline]", "values": [{"measurement": "reduction in mutEJ at DSBs", "setting": "Flp-In T-REx-293 cells; ON vs OFF doxycycline, FIG. 17B, not at nicks", "value": 2, "unit": "fold"}, {"measurement": "increase of the frequency of HDR at a transcribed-strand nick", "setting": "Flp-In T-REx-293 cells; [2]", "value": 2.5, "unit": "fold"}, {"measurement": "reduction of the frequency of HDR at a non-transcribed strand nick", "setting": "Flp-In T-REx-293 cells; [2]", "value": 4, "unit": "fold"}]}
{"molecule": "B1", "values": [{"measurement": "frequency of HDR at nicks by ssDNA donor", "setting": "293T-TL7TP cells", "value": "stimulating"}, {"measurement": "frequency of HDR at nicks by ssDNA donor", "setting": "HT1080-TL4TP clonal line", "value": "stimulating"}, {"measurement": "frequency of mutagenic EJ", "setting": "293T-TL7TP line", "value": "increased"}, {"measurement": "effect on HDR at nicks in the transcribed or non-transcribed strand", "setting": "[1]", "value": "Stimulation was evident; also recorded: comparable effects"}]}
